Reference: article doi:10.1101/2024.10.10.617615

Molecular target: SpyCatcher003
Test: gel shift assay of isopeptide ligation

| fold change of ligation rate against Oxo (slower) | fold change of ligation rate against Val^S3 (slower) | Substance | fold change of ligation rate against Oxo (faster) |
| --- | --- | --- | --- |
| 38 fold | – | SpyTag003 Ala^S11 thioamide variant (peptide) | – |
| 1.6 fold | – | SpyTag003 Val^S9 thioamide variant (peptide) | – |

More lines, now with the values behind:

| Substance | fold change of ligation rate against Oxo (slower) | fold change of ligation rate against Val^S3 (slower) | fold change of ligation rate against Oxo (faster) |
| --- | --- | --- | --- |
| SpyTag003 Val^S7 thioamide variant (peptide) | – | – | 1.4 fold |
| SpyTag003 Ile^S6 thioamide variant (peptide) | 5.4 fold | – | – |
| SpyTag003 Met^S8 thioamide variant (peptide) | > 2000 fold | – | – |
| SpyTag003 Val^S3-Pro^S4 dual thioamide peptide | 1.2 fold | 2 fold | – |
| SpyTag003 Val^S3 thioamide variant (peptide) | – | – | 1.8 fold |
